Test results: paper PMC11261467

Key:
Experiment in all cases: SPR
[1] = target: plasma-derived C4b (unfractionated) (human) (UniProt P0C0L4)
[2] = target: plasma-derived C3b (unfractionated) (human) (UniProt P01024)
[3] = target: His-tagged CSL040/LHR-ABC (human) (UniProt P17927)

Substance	Kd [1]	Kd [2]	Kd [3]
LHR-AA (soluble human CR1 variant with two tandem LHR-A domains), untagged (from UniProt P17927 42-489; P17927 42-489)	1540 nM		
LHR-B (soluble human CR1 truncation), untagged (from UniProt P17927 490-939) (domain or fragment)	1910 nM	337 nM	
plasma-derived C3b (unfractionated) (from UniProt P01024 749-1663; P01024 749-1663) (ligand)			134 nM
plasma-derived C3b dimer (purified by size-exclusion chromatography) (from UniProt P01024 749-1663; P01024 749-1663) (complex)			3.8 nM

Continued, values first:

Kd [1]	Kd [2]	Kd [3]	Substance
1230 nM			LHR-A (soluble human CR1 truncation), untagged (from UniProt P17927 42-489) (domain or fragment)
530 nM	305 nM		LHR-AB (soluble human CR1 truncation), untagged (from UniProt P17927 42-939) (domain or fragment)
581 nM	78.2 nM		LHR-BC (soluble human CR1 truncation), untagged (from UniProt P17927 490-1392) (domain or fragment)
